Data taken from US9766250B2, “Method for detecting protein-protein interaction” (MEDICAL & BIOLOGICAL LABORATORIES CO., LTD., priority 2011, dated 2017).

How the values were obtained:
[1] = target: T1, interaction between BclX(L) and Bax (Homo sapiens, UniProt Q07817); test: Time course of fluorescent foci after ABT-737 addition, BclX(L)/Bax (Example 24); assay type: cell-based; conditions: 293 cells co-expressing p62(PB1)-BclX(L) and AG-Bax; 15 μM
T1 construct: region having the 1st to 209th amino acids of the BclX(L) protein; expressed in transfected cells; host or cells: 293 cells, transient
T1 sequence (Q07817 1-209): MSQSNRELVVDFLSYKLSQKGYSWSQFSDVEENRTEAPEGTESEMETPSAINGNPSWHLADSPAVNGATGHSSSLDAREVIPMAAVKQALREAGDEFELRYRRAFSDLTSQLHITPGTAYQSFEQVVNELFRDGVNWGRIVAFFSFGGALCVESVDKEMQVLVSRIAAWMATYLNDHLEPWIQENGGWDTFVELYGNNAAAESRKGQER
Description: (§1) The plasmid DNAs were mixed in equal amounts in the following combinations, and the genes were introduced into 293 cells by the same method as that described in Example 2: • a combination of pp62(PB1)-BclX(L) with pBak-hAG; and • a combination of pp62(PB1)-BclX(L) with phAG-Bax.
(§2) Then, to the 293 cells into these plasmid DNAs were introduced, ABT-737 (manufactured by Santa Cruz Biotechnology, Inc.) was added to the final concentration of 15 μM, and images were obtained by the same method as that described in Example 2 every 30 minutes for the cells co-expressing p62(PB1)-BclX(L) and Bak-AG, and every 5 minutes for the cells co-expressing p62(PB1)-BclX(L) and AG-Bax. On the basis of the obtained images, analysis was performed by the same method as that described in Example 11, and a graph was prepared by plotting a total fluorescence intensity of fluorescent foci (assemblies) against time. Note that, in the graph, the x axis represents time (minutes), provided that time when the drug was added is 0, and the y axis represents the total fluorescence intensity of fluorescent foci (assemblies).

[2] = target: T2, interaction between BclX(L) and Bak (Homo sapiens, UniProt Q07817); test: Time course of fluorescent foci after ABT-737 addition, BclX(L)/Bak (Example 24); assay type: cell-based; conditions: 293 cells co-expressing p62(PB1)-BclX(L) and Bak-AG; 15 μM
T2 construct: region having the 1st to 209th amino acids of the BclX(L) protein; expressed in transfected cells; host or cells: 293 cells, transient
T2 sequence (Q07817 1-209): as above
Description: as §1, §2

[3] = system: interaction between an ERK substrate and Pin1(ww); test: Time course of fluorescent foci after EGF and U0126, 293 cells (Example 27); assay type: cell-based
Description: On the next day, EGF (manufactured by SIGMA CO.) was added to the cells to the final concentration of 50 ng/ml. Further, 14 minutes thereafter, U0126 was added to the cells to the final concentration of 10 μM. Meanwhile, the cell observation was started 2 minutes before the EGF addition, and the observed images were obtained every 15 seconds. The obtained images were used to analyze a total fluorescence luminance of fluorescent foci (assemblies) by the same method as that described in Example 11, and a graph was prepared by plotting the total fluorescence luminance against time.

[4] = system: interaction between calmodulin and M13 peptide of myosin light chain kinase 2; conditions: 200 μM
Description: pCalmodulin-hAG and pM13peptide-p62(PB1) were mixed in equal amounts and introduced into HeLaS3 cells by the same method as that described in Example 1. Then, 200 μM histamine (manufactured by Wako Pure Chemical Industries, Ltd.) was added thereto, and fluorescence images were captured over time.

[5] = system: interaction between Rac1 and RhoGDI; test: Fluorescent foci after mevastatin, Rac1/RhoGDI (Example 22); assay type: cell-based; conditions: cells co-expressing AG-Rac1 and RhoGDI-p62(PB1); 10 μM; 15 hours
Description: (§3) Then, each of the following combinations of the plasmid DNAs was mixed in equal amounts and introduced into cells by the same method as in Example 2: • a combination of phAG-Rac1 with pp62(PB1)-PBD; and • a combination of phAG-Rac1 with pRhoGDI-p62(PB1). Then, after culturing for 6 hours after the transfection, an inhibitor mevastatin (Enzo Life Sciences, Inc.) against geranylgeranyl group modification was added to the final concentration of 10 μM, allowed for further culturing for 15 hours, and observed.

[6] = system: interaction between Rac1 and PBD; test: Localization of fluorescent foci after mevastatin, Rac1/PBD (Example 22); assay type: cell-based; conditions: cells co-expressing AG-Rac1 and p62(PB1)-PBD; 10 μM; 15 hours
Description: as §3

[7] = target: T3, mTOR(FRB) and FKBP12 interaction (Homo sapiens, UniProt P42345+P62942); test: Degree of fluorescent focus (assembly) formation after rapamycin, fluorescent proteins fused to mTOR(FRB) (Example 8, Table 1); assay type: cell-based; design: key to degree of fluorescent focus formation, Tankyrase (SAM): +++: fluorescent foci were observed in 50% or more of the HeLaS3 cells; ++: fluorescent foci were observed in 50% or less of the HeLaS3 cells; +: fluorescent foci were observed in 293T cells expressing a larger amount of proteins than that in the HeLaS3 cells; conditions: fluorescent protein fused to mTOR(FRB); for degree of fluorescent focus formation, DGKd (SAM): with FKBP12-DGKd(SAM); for degree of fluorescent focus formation, TEL (SAM): with FKBP12-TEL(SAM); for degree of fluorescent focus formation, Tankyrase (SAM): with FKBP12-Tankyrase(SAM), some combinations in 293T cells; for degree of fluorescent focus formation, P62 (PB1): with p62(PB1)-FKBP12
T3 construct: region having the 2025th to 2114th amino acids of the mTOR protein; expressed in transfected cells; host or cells: HeLaS3; 293T for some combinations with FKBP12-Tankyrase(SAM)
T3 sequence (P42345 2025-2114): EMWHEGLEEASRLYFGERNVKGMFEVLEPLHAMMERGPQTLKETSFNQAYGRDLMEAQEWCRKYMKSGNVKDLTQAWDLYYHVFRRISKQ
T3 sequence (P62942 whole entry, the tested form may be a part): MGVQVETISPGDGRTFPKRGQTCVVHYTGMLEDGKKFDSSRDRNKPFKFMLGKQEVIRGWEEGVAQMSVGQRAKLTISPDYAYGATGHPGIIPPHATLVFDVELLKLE
Description: Note that plasmid DNAs encoding fusion proteins composed of mTOR(FRB) and the corresponding fluorescent proteins were prepared as appropriate by the same method as that described in Example 2. Moreover, regarding the combinations of FKBP12-Tankyrase(SAM) with mKO2, mKeima, mMiCy1, mKO1, MiCy1, and TGuv, the test was conducted by introducing the genes into 293T cells. Specifically, the 293T cells were cultured in DMEM High glucose (manufactured by SIGMA ALDRICH CO.) containing 10% FBS (manufactured by Equitech-Bio Inc.). Moreover, the 293T cells were seeded onto an 8-well chamber (manufactured by Nunc A/S) 6 hours before the plasmid DNAs were introduced. Further, at the time of the transfection, 200 ng of the plasmid DNA encoding FKBP12-Tankyrase(SAM) and 200 ng of one of the plasmid DNAs encoding fusion proteins composed of the fluorescent proteins and mTOR(FRB) were diluted with 30 μl of OptiMEM (manufactured by Life Technologies Corporation), and 1.2 μl of TurboFect Transfection Reagent (manufactured by Thermo Fisher Scientific Inc.) was added thereto and stirred. Then, the resultant was further mixed with 300 μl of the culture solution, subsequently added to the 293T cells, and observed 48 hours later.

[8] = target: T3, mTOR(FRB) and FKBP12 interaction; test: Degree of fluorescent focus (assembly) formation after rapamycin with TFG(PB1) (Example 9, Table 2); assay type: cell-based; design: key: ++: fluorescent foci were observed in 50% or less of the HeLaS3 cells; +: fluorescent foci were observed in the 293T cells expressing a larger amount of proteins than that in the HeLaS3 cells; conditions: fluorescent protein fused to mTOR(FRB), KO1 and dAG (AB) in 293T cells
[9] = system: interaction between HRas and cRaf; test: Time course of fluorescent foci after EGF, HRas/cRaf (Example 28); assay type: cell-based; conditions: cells with p62(PB1)-HRas(WT) and AG-cRaf(R59A); 50 ng/ml; vicinity of the cell membrane
Description: EGF (manufactured by SIGMA CO.) was added thereto to the final concentration of 50 ng/ml. A measurement apparatus capable of detecting a fluorescent signal only in the vicinity of the cell membrane was used for the observation. Note that the observation was started 5 minutes before the EGF addition, and continued at 5-minute intervals for 30 minutes after the addition. The observation was made another 30 minutes thereafter. On the basis of the obtained image data, analysis was performed by the same method as that described in Example 11, and a graph was prepared by plotting a total fluorescence intensity of fluorescent foci (assemblies) against time. Note that, in the graph, the x axis represents time (minutes), provided that time when EGF was added is 0, and the y axis represents the total fluorescence intensity of fluorescent foci (assemblies).

[10] = system: interaction between KRas and cRaf; test: EGF-dependent fluorescent foci near the cell membrane, Cos-7 cells (Example 23); assay type: cell-based; conditions: Cos-7 cells co-expressing p62(PB1)-KRas(WT) and AG-cRaf(R59A); 50 ng/ml; 37° C. for 30 minutes
Description: The cells were observed using a total internal reflection fluorescence microscopy system with arc lamp source (manufactured by Olympus Corporation, IX71-ARCEVA) capable of exciting only the vicinity of the cell membrane. Additionally, regarding the combination of pp62(PB1)-KRas (WT) with the phAG-cRaf (R59A), an image was obtained when no EGF was added. After that, EGF (manufactured by SIGMA CO.) was added to the cells to the final concentration of 50 ng/ml and left standing at 37° C. for 30 minutes. Then, the resultant was observed again.

Compound | degree of fluorescent focus formation, DGKd (SAM) [7] | degree of fluorescent focus formation, TEL (SAM) [7] | degree of fluorescent focus formation, Tankyrase (SAM) [7] | degree of fluorescent focus formation, P62 (PB1) [7] | further results
CN(C)CC[C@H](CSc1ccccc1)Nc1ccc(S(=O)(=O)NC(=O)c2ccc(N3CCN(Cc4ccccc4-c4ccc(Cl)cc4)CC3)cc2)cc1[N+](=O)[O-] [ABT-737] | – | – | – | – | time when the total fluorescence luminance reached a half value [1]: approximately 35 minutes; time when the total fluorescence luminance reached a half value [2]: approximately 80 minutes
N#CC(=C(/N)Sc1ccccc1N)/C(C#N)=C(\N)Sc1ccccc1N [U0126, reference compound] | – | – | – | – | fluorescent foci after U0126 addition ([3]; same cells, 10 μM, added 14 minutes after EGF): the fluorescent foci were slowly decreased
NCCc1c[nH]cn1 [histamine] | – | – | – | – | fluorescent foci at the later time point ([4]; 490 seconds after the cytoplasm calcium ion concentration was decreased): extinguished; fluorescent focus formation after ligand addition ([4]; HeLaS3 cells expressing Calmodulin-AG and M13peptide-p62(PB1), 90 seconds after addition): fluorescent focus formation was detected
CC[C@H](C)C(=O)O[C@H]1CCC=C2C=C[C@H](C)[C@H](CC[C@@H]3C[C@@H](O)CC(=O)O3)[C@H]21 [mevastatin] | – | – | – | – | interaction between Rac1 and RhoGDI [5]: reduced; localization of the interaction between Rac1 and PBD [6]: the interaction took place only in the nuclei
Azami-Green [AG] | +++ (fluorescent foci were observed in 50% or more of the HeLaS3 cells) | +++ (fluorescent foci were observed in 50% or more of the HeLaS3 cells) | +++ (fluorescent foci were observed in 50% or more of the HeLaS3 cells) | +++ (fluorescent foci were observed in 50% or more of the HeLaS3 cells) | degree of fluorescent focus formation, TFG (PB1) [8]: ++ (fluorescent foci were observed in 50% or less of the HeLaS3 cells)
Kikume Green-Red [KikGR] | +++ (fluorescent foci were observed in 50% or more of the HeLaS3 cells) | +++ (fluorescent foci were observed in 50% or more of the HeLaS3 cells) | +++ (fluorescent foci were observed in 50% or more of the HeLaS3 cells) | +++ (fluorescent foci were observed in 50% or more of the HeLaS3 cells) | degree of fluorescent focus formation, TFG (PB1) [8]: ++ (fluorescent foci were observed in 50% or less of the HeLaS3 cells)
Kusabira-Orange 1 [KO1] | +++ (fluorescent foci were observed in 50% or more of the HeLaS3 cells) | +++ (fluorescent foci were observed in 50% or more of the HeLaS3 cells) | ++ (fluorescent foci were observed in 50% or less of the HeLaS3 cells) | +++ (fluorescent foci were observed in 50% or more of the HeLaS3 cells) | degree of fluorescent focus formation, TFG (PB1) [8]: +
Midoriishi-Cyan1 [MiCy1] | +++ (fluorescent foci were observed in 50% or more of the HeLaS3 cells) | +++ (fluorescent foci were observed in 50% or more of the HeLaS3 cells) | + | +++ (fluorescent foci were observed in 50% or more of the HeLaS3 cells) | –
dimeric Keima-Red [dKeima] | +++ (fluorescent foci were observed in 50% or more of the HeLaS3 cells) | +++ (fluorescent foci were observed in 50% or more of the HeLaS3 cells) | ++ (fluorescent foci were observed in 50% or less of the HeLaS3 cells) | +++ (fluorescent foci were observed in 50% or more of the HeLaS3 cells) | –
epidermal growth factor (NSDSECPLSHDGYCLHDGVCMYIEALDKYACNCVVGYIGERCQYRDLKWWELR; Epidermal growth factor; UniProt P01133 971-1023, looked up) [EGF] | – | – | – | – | interaction between HRas and cRaf after EGF addition [9]: took place by adding EGF; fluorescent foci after EGF addition ([3]; 293 cells expressing p62(PB1)-ERK_substrate and AG-Pin1(ww)-NES, 50 ng/ml): fluorescent foci (assemblies) were significantly observed as time elapsed; assembly formation after EGF addition [10]: the assembly formation was observed at the cell membranes
monomeric Keima-Red [mKeima] | +++ (fluorescent foci were observed in 50% or more of the HeLaS3 cells) | ++ (fluorescent foci were observed in 50% or less of the HeLaS3 cells) | + | +++ (fluorescent foci were observed in 50% or more of the HeLaS3 cells) | –
monomeric Kusabira-Orange 1 [mKO1] | +++ (fluorescent foci were observed in 50% or more of the HeLaS3 cells) | +++ (fluorescent foci were observed in 50% or more of the HeLaS3 cells) | + | +++ (fluorescent foci were observed in 50% or more of the HeLaS3 cells) | –
